Measurements taken from PMC1713233, “Implantation Serine Proteinases heterodimerize and are critical in hatching and implantation” (BMC Developmental Biology, 2006).

Molecular target: T1, ISP1-ISP2 enzyme complex (Mus musculus, UniProt Q924N9+Q99MS4)
T1 construct: The native ISP enzyme complex was purified from mouse uterine tissue homogenates; from tissue; host or cells: uterus of pregnant CD1 mice (4.5-6.5 dpc)
Test: Inhibition of proteolytic activity of ISP enzyme complex, chromogenic assay with BAPNA as substrate
Format: biochemical
Procedure: Many general serine proteinase inhibitors were tested in order to identify suitable ISP inhibitors when BAPNA was used as a substrate. These included Benzamidine hydrochloride, 4-(Amidino-Phenyl)-Methane-Sulfonyl Fluoride (APMSF), L-1 Chloro-3- [4-tosyl-amido]-7-amino-2-heptanone. HCl (TLCK), Trypsin Soybean Inhibitor (TSI), Bis (5-amidino-2-benzimadozolyl) methane (BABIM), Gabexate mesylate, Nafamostat, and the kunitz family serpins Uterine Plasmin-Trypsin Inhibitor (UPTI) and Secretary Leukocyte proteinase inhibitor (SLPI).
Only inhibitors specific for trypsin-like serine proteinases were able to inhibit the ISPs (Fig. 4B and Additional file 2. Table 1). IC50 (concentration of an inhibitor capable of inhibiting the enzyme activity by 50%) values were obtained by plotting inhibition data, which were extrapolated into Cheng and Prusoff's equation to derive the dissociation constant (Ki).
Chromogenic assays were carried out using the p-Nitroanilide conjugated peptidic substrates. The reaction conditions used were: 4 mM BAPNA (substrate), in 25 mM Tris.Cl (pH 8.0) and 10 mM EDTA reaction buffer, in a total reaction volume of 0.5 mL. The reactions were carried out at room temperature in a glass cuvette (1 cm path length), and scanned at wavelength maxima of 405 nm using a spectrophotometer. 1 Unit of enzyme is defined as enzyme activity sufficient for the breakdown of 1 μM of substrate/ml/min. The affinity of ISP complex with various substrates was characterized by measuring enzyme activity at differing substrate concentrations and plotting enzyme activity [V] vs. substrate concentration [S]. The Km was calculated using the Michaelis Menton equation (Km = [S] at 1/2 Vmax).
IC50 values were derived by plotting enzyme activity (V) vs. inhibitor concentration [I]. Dissociation constants (Ki) values for different inhibitors were determined by using the Cheng and Prusoff equation (Ki = IC50/1 + [S]/Km).

T1 sequence (Q924N9 27-274): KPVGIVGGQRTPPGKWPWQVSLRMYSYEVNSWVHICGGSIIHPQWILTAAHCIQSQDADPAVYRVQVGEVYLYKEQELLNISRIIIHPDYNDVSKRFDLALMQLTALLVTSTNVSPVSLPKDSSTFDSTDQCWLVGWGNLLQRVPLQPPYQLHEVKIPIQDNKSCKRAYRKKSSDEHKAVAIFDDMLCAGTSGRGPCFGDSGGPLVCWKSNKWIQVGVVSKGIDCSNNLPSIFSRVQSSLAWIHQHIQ
T1 sequence (Q99MS4 18-279): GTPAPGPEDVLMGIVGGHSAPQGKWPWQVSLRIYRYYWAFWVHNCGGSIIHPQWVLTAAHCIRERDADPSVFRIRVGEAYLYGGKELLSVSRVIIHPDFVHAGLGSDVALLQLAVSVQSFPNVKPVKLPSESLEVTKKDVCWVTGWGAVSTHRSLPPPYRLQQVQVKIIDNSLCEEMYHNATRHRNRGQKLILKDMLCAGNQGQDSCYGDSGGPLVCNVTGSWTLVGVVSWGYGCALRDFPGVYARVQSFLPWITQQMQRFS

IC50 (4 mM BAPNA substrate, 25 mM Tris.Cl pH 8.0, room temperature, read-out: IC50%): 8 µM | Affinity for ISP enzyme (Fig. 4B, compared to Benzamidine): relatively high affinity | Influence on ISP activity (general trypsin inhibitors): inhibitory influence
B1: TSI: Trypsin Soybean Inhibitor, obtained from Sigma Aldrich (protein, UniProt P01070 25-205, looked up)
Trypsin inhibitor A: DFVLDNEGNPLENGGTYYILSDITAFGGIRAAPTGNERCPLTVVQSRNELDKGIGTIISSPYRIRFIAEGHPLSLKFDSFAVIMLCVGIPTEWSVVEDLPEGPAVKIGENKDAMDGWFRLERVSDDEFNNYKLVFCPQQAEDDKCGDIGISIDHDDGTRRLVVSKNKPLVVQFQKLDKESL
